# From the nanobody polyreactivity screen of Harvey et al. (2022)
# Assay: yeast display, Sf9 membrane polyspecificity reagent, FACS + sequencing; frameworks hold sequencing errors
# Method in brief: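 Galactose-induced (36–48 hours) yeast carrying a synthetic nanobody display library were exposed to 10% biotinylated, detergent-solubilized Sf9 membrane reagent at 4 °C for 1 hour. FACS followed streptavidin microbead enrichment, using low and high (top ~1%) gates for expression (anti-HA) and reagent binding (streptavidin). Colony PCR, MiSeq 2 × 250 sequencing and CDR-length filtering followed. Labels for polyreactivity reflect the gate of origin.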
row,Sequence,polyreactivity (PSR sort gate)
1,QVQLVESGGGLVQAGGSLRLSCAASVSIFGYYAMGWYRPAPGKEMELVAAISSGGNTNYADSVKGRFTISRDNAKNTVYLQMISLKQEDTAVYYCATRARYKRIRYDYWGQGTQVTVSS,high polyreactivity
2,QVQIVESGGGVVQAGGSLRLSCAASGLIFPAYTMGWYRQAPGKERELVAAISRSGGSTYYADSVKGRFTISRDNAKNTVSLQMNSLNPEDTAVYYCAAQGYFVDRAGRYYRGDYWGQGTQVTVSS,high polyreactivity
3,QVQLVESGGGLVQAGGSLRLSCAASGYILGRYAMGWSRQAPGNERELVAAITSGASTYYADSVKGRFTISRDNAKNTVYLQMNSLKPEDTAVYYCARVNGAKQGGEYDYWGQGTQVTVSS,high polyreactivity
4,QVQHEESGRGLVQAGGSLRLSCAASGINCVYYAMGCYRQAPGKERELVAAISKNGGSTYYADSVKGRFTISRDNAYNTVYLQMNSLKPEDTAVYYCAAEEGYRWVRYNYWGQGTQVTVSS,high polyreactivity
5,QGQLVESGGGIVQAGGSLRLSCAASGFNFWQYAMGLYRQAPGKERELVAAITSSGTSTYYADSVKGLFTISRDNAKNTVYLQMNSLKPEDTAVYSCAADLGYYDLYYWGQGTQVTVSS,low polyreactivity
6,QVQLVESGGGLVQAGGSLRLSCAASGRIFGFYTIGWYRQAPGKERELVATISWSGSGTYYADSVKGRFTISRDNAKNTVYLQMNSLKPEDTAVYYCNADWYYVGYDYWGQGTQVTVSS,low polyreactivity
7,QVQLVESGGGLVQAGGSLRLSCAASGSIFYRYAMGWYRQAPGKERELVAAISSTGSTYYADSVKGRFTISRDNAKNTVYLQMNSLKPEDTAVYYCAARQGFRSYRRYDYWGQGTQVTVSS,high polyreactivity
8,QVQQQESGGGLVQAGGSLRLSCAASGTIFQLTVMGRYRQAPGNERELVASIDYGGNTNYADSVKGRFTISRDNAKNTVYLQMNILKPEDTAVYYCPASSDSWTTHPYWGQGTQVTLSS,low polyreactivity
9,QVQLVESGGGLVQAGGSLRISCAASGFTLSYYAMGWYRQAPGKERELVASISAIGGITYYADSVKGRFTISRDNAKNTVYLQMNSLKPEDTAVYYCARQGRRYRRFDSWGQGTQVTVSS,high polyreactivity
10,QVQLVESGGGLVQAGGSLPLSCAASGITLYGYAMGWNRQAPGNERELVPAISRSGSSTYYADSVKGRFTISRDNAKNTVYLQMNILKPEDTAVYYCNVYSGRYWESHKFDSWGQGTQVTVSS,high polyreactivity
11,QVHLVESGGGLVQAGGSLRLSCAASGSTFIYNTMGWYRQAPGKERELVATITDSSDSTNYADSVKGRFTITRDNAKNTVYLQMNSLKPDDTAVYYCAADGEVDIATYPSQITDYDYWGQGTQVTVSS,low polyreactivity
12,QVQLVESGGVLVQAGGSLRLSCAASGSILSNYAMGWYRQAPGKERELVASISSTAGSTYYADSVKGRFTISRDNCKNTVYLQMNSLKPEDTAVYYSIKVFGGGTYDFWGQGTQVTVSS,low polyreactivity
13,QVQLVESGGGLVQAGGSLRLSCAASGSIFRFYAMGWYRQAPGKERELDAVITSTGRKYYADSVKGRFTISRDNAKNTGYLQMTSLKPEDTAVYYCNAAEAGKGAYAYDYWGQGTQVTVSS,low polyreactivity
14,QVQLVESGGGLVQAGGSLRLSCAASGSTFRDYDMGWYRQAPGKERELVAAISLSGGRTHYADSVKGRFTISRDNAKNTVYLQMNSLKPEDTAVYYCAARNTGPVQYYYWGQGTQVTVSS,low polyreactivity
15,QVQLVESGGGLVQAGGSLRLSCAASGRTFQWYTMGWYRQAPGKERELVAGISWRGGSTYYADSVKGRFTISRDNAKNTVYLQMNSLKPEDTAVYYCAALASRLTGRDYWGQGTQVTVSS,high polyreactivity
16,QVQLVQSGGGLVQAGGSLRLSCAASGTTFRIYAMGWYRQAPGKEREFVAAISDRGGRTYYADSVKGRFTISRDNAKNTVYLQMNSLKPEDTAVYYCAAVKLLSSAPGDDGKMNYWGQGTQVTVSS,low polyreactivity
17,QVQLVESGGGLVQAGGSLRLSCAASGGTFNSNAMGWYRQAPGKEREFVAAISSSGGSTYYADSVKGRFTISRDNAKNTVYLQMNSLKPEDTAVYYCAKRYPYPNGRFRFGYWGQGTQVTVSS,high polyreactivity
18,QVQLVESGGGLVQAGGSLRLSCAASGRTLRTYTMGWYRQAPGKERELVAAISSSDDSTYYADSVKGRFTISRDNEKNTVYLQMNSLKPEDNAVYSCAKDGLYPTEYGYWGQGTQVTVSS,high polyreactivity
19,QVQLVESGGVLVQAGGSLRLSCAASGRIFDYYAMGWYRKAPGKERELVAAITSGGTTTYYADSVKGRFTISRDNAKNTVYLQMKSLKPEDTAVYYCAKYPYHIYHTEGDYWGQATQVTVSS,low polyreactivity
20,QVQLVDSGGGLVQAGGSLRLSCAASGSIFEGYVMGWYRQAPGKERELVAAITTGGGSTYYADSVKGRFTISRDNAKNTVDLPMNSLKPEDTAVYYCAKDYWFGYEYWGQGTQVTVSS,low polyreactivity
21,QVQLVESGGGLVQAGGSLRLSCAASGLTFYVYGMGWYRQAPGKERELVASITSGGNTYYADSVKGRFTISRDNAKNTVYLQMNSLKPEDTAVYYCAVTAIALYYSSGYYWGQGTQVTVSS,low polyreactivity
22,QVHLVESGGGLVQAGGSLRLRCAASGSTFEYNAMGWYRPAPGKERELVASSTNYADSVKGRFTISRDNAKNTVSLQMNSLKPEDTAVYYCSREQGVNRNHDYWVQGTQVTVSS,low polyreactivity

row,Sequence,polyreactivity (PSR sort gate)
1,QVQLVESGGGLVQAGGSLRLSCAASGSISVANAMGWYRQAPGKERELVAAITDSGDDTYYADSVKGRFTISRDTAKNTVYLQMNSLKPEDTAVYYCAVEAWSVPPYDYWGQGTQVTVSS,low polyreactivity
2,QVQLVESGGGLVQAGGSLRLSCASSGSISAVNTMGWYRQAPGKERELVATISYSTASTYYADSVKGRFTMSRDNAKKTVYLQMNSLKPEDTAVYYCNKDGRWYAYNSEYDHWGQGTQVTVSS,low polyreactivity
3,QVQLEESGGGLVQAGGSLRLSCAASGRIFRANAMGRYRQAPGKERELVADITRRGASTYYADSVKGRFTISRDNAKNTVYLQMNSLKPEDTAVYYCNARGWPSSLLYLRDRYQMDYWGQGTQVTVSS,low polyreactivity
4,QVQLVESGGGLVQAGGSLRLSCAASGIIFRGNAMGWYRQAPGKERELVAAISRSGRTNYADSVKGRFTISRDNAKNTVYLQMNSLKPEDTAVYYCAVDKRYGRVVGRDYDYWGQGTQVTVSS,high polyreactivity
5,QVQLVESGGGLVQAGGSLRLSCAASGSTFPVYAMGWYRQAPGKERELVAAISRSGASTYYAASVKGRFTISRDNAKNTVDLQMNSLKPDDTAVYYCARGYQGRLKYEYWGQGTQVTVSS,low polyreactivity
6,QVQLVESGGGLVQAGGSLSLSCAASGNNLYGNAMGWYRPAPGKERELVAGITSGGSTNYADSVKGRFTISRDNAKNTVYLQMNSLKREDTAVYYCNATSSGSIFGYDYWGQGTQVTVSS,low polyreactivity
7,QVQLVESGGGLVQAGGSLRLSCAASGFIFKWNAMGWYRQAPGKERELVAAITSGGGTYYADSVKGRFTISRDNAKNTVYLQMNSLKPEDTAVYYCAALGRYWPARRFDYWGQGTQVTVSS,high polyreactivity
8,QVQLVESGGGLVQAGGSLRLSCAASGRTFRGYAMGWYRQAPGKERELVAAITWSGGRTYYADSVKGRFTISRDNAKNTVYLQMNSLKPEDTAVYYCATSPGRWGWGYDYEYWGQGTQVTVSS,low polyreactivity
9,QVQHVESGGGLVQAGGSLRLSCAASGLTSRYYAMGWYRQAPGKERELVAAISSRGGRTYYADSVKGPFTISRDNAKNTVYLQMNSLKPEDTAVYYCNAVRGYSGNLRDYWGQGTQVTVSS,high polyreactivity
10,QVQLVESGGGLVQAGGSLRLSCAASGSTFPRYAMGWYRQAPGKERELVAAITYSGGRTYYADSVKGRFTISRDNAKNTVYLQMNSLKPEDTAVYYCAARYGPYRFNPMGYWGQGTQVTVSS,high polyreactivity
11,QVQLVESGGGLVQAGGSLRLSCAASGITFSSYAMGWYRQAPGTEREFVARISTDADTYYADSVKGRFTISRDNAKHTVLLQMNSLKPEDTAVYYCAAEDYRDFDYWGHGTQVTVSS,low polyreactivity
12,QVQLVESGGGLVQAGGSLRLSCAASGRIFDTNAMGWYRQAPGKERELVAAITYSGGSTYYADSVKGRFTISRDNAKNTVYLQMNSLKPEDTAVYYCAAGPYDPRYDYWGQGTQVTVSS,high polyreactivity
13,QVQLVESGGGLVQAGGSLRLSCAASGIIFYRNAMGWYRQAPGNERELVAAITSSGGRTYYADSVKGRFTISRDNAKNTVYLQMNSLKPEDTPVYYCAATRLYWKIFYGDGDYWGQGTQVTVSS,high polyreactivity
14,QVQLVESWGGLVQAGGSLRLSCADSGYIYDHYDMGWYRQAPGKDRELVAAISRSAGSTYYADSVKGRFTITRDNAKNTVYLQMNSLKPEDSAVYYCAADGKYYHRRPGWPIYDYWGQGTQVTVSS,high polyreactivity
15,QVQLVESGGGLVQAGGSLRLSCAASGRIFVYYTMGWYRQAPGKERELVAAITGSGGSTYYADSVKGRFTISRDNAKNTVYLQMNSLKPEDTAVYYCAAQLGWWGSGYWGQGTQVTVSS,high polyreactivity
16,QVQLVESGGGLVQAGGSLRLSCAATGRISFRILWDGIDRRLGKKGSWLPLLTNTGSTNYADSVKARFTISRDNAKNTVYLQMNSLKPEDTAVYYCNADPTGGSSYPAYFEYDYWGQGTQGTVSS,low polyreactivity
17,QVQLVESGGGLVQAGGSLRLSCAASGFTFYRYAMGWYRQAPGKERELVAAITWSGGSTYYADSVKGRFTISRDNAKNTVYLQMNSLKPEDTAVYYCAASRWIFQVNDYDYWGQGTQETVSS,high polyreactivity
18,QVQLVESGGGLVQAGGSLSISCAASGRTFPEYGMGWYRQAPGKDREFVAAISTRGGSTYYANSVKGRFTISGDNAKNTVYLQMNSLKPEDTAVYYCAKVYDRSGGDYWGQGTQVTVSS,low polyreactivity
19,QVQLVESGGGLVQAGGSLRLSCAASGYIFPFNAMGWYRQAPGKERELVAAITNGGRTYYADSVKGRFTISRDNAKNTVYLQMNSLKPEDTAVYYCAAGSKSDMDWGQGTQVTVSS,low polyreactivity
20,QDQLVESGGGLVQAGGSLRLSCAASGRTFRRYAMGWYRQAPGKERELVAAISASGGSTYYADSVKGRFTISRDNAKNTVYLQMNSLKPEDTAVYYCYALHRAGLFGHYPYESWGQGTQVTVSS,high polyreactivity
21,QVQLVESGGGLVQAGGSLRLSCAASGRTFYYYAMGWSRQAPGKERELVAAIRWRATSTFYADSVKGRFTISRDNAKNTVYLQMNSLKPEDSAVYYCATTGGYRLQAQKYYYWGQGTQVTLSS,high polyreactivity
